The source of these data is patent US5621078.

In this test the target is epidermal growth factor receptor (Homo sapiens (Human)) (UniProt P00533).

In turn, TGF-alpha - PE40 AB (ligand) displayed an A431 CELL KILLING EC50 pM of 47 pM.
